Laboratory results published in the supplement of paper PMC7877785.
± gives the uncertainty stated by the source.

Assay: self-splicing fitness, log relative to wild type (ln ratio); higher = more splicing; Tetrahymena group I intron in knt gene, E. coli kanamycin selection, DiMSum; sequences stand for … in CUCUCU…GGAGGGAAAAGUUAUCAGGCAUGCACCUGGUAGCUAGUCUUUAAACCAAUAGAUUGCAUCGGUUUAAAAGGCAAGACCGUCAAAUUGCGGGAAAGGGGUCAACAGCCGUUCAGUACCAAGUCUCAGGGGAAACUUUGAGAUGGCCUUGCAAAGGGUAUGGUAAUAAGCUGACGGACAUGGUCCUAACCACGCAGCCAAGUCCUAAGUCAACAGAUCUUCUGUUGAUAUGGAUGCAGUUCACAGACUAAAUGUCGGUCGGGGAAGAUGUAUUCUUCUCAUAAGAUAUAGUCGGACCUCUCCUUAAUGGGAGCUAGCGGAUGAAGUGAUGCAACACUGGAGCCGCUGGGAACUAAUUUGUAUGCGAAAGUAUAUUGAUUAGUUUUGGAGUACUCGUGGUCG
Outline: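 Library with all eight P1ex-region intron nucleotides randomised, intron inside the knt kanamycin-resistance gene on pET-22b(+), in E. coli BL21(DE3). Cells grew overnight at 37°C or 30°C on LB agar with or without 25 μg/mL kanamycin (plus 100 μg/mL carbenicillin, 50 μM IPTG, 0.2% rhamnose), in six replicate transformations. Pooled colonies were amplicon-sequenced on Illumina HiSeq 2500. DiMSum fitness is the error-weighted combination of wild-type-normalised replicate fold changes, kanamycin versus none.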

Sequence	self-splicing fitness (ln) (30 °C)	self-splicing fitness (ln) (37 °C)
AAAAAGCAAUAUUACGAAGA	-1.96 ± 0.14	-1.56 ± 0.15
AAAAAGCAAUAUUACGAAGG	-3.57 ± 0.23	-1.89 ± 0.23
AAAAAGCAAUAUUACGAAUC	-2.31 ± 0.21	-2.21 ± 0.23
AAAAAGCAAUAUUACGACAC	-0.799 ± 0.094	-0.575 ± 0.13
AAAAAGCAAUAUUACGACCA	-0.0993 ± 0.079	-0.734 ± 0.09
AAAAAGCAAUAUUACGAGAG	-2.88 ± 0.11	-1.95 ± 0.1
AAAAAGCAAUAUUACGAGCU	-0.615 ± 0.092	-0.172 ± 0.13
AAAAAGCAAUAUUACGAUCU	0.127 ± 0.055	0.246 ± 0.075
AAAAAGCAAUAUUACGCAAG	-1.78 ± 0.097	-0.583 ± 0.1
AAAAAGCAAUAUUACGCAAU	-0.871 ± 0.076	-1.08 ± 0.13
AAAAAGCAAUAUUACGCCGA	-1.19 ± 0.088	-1.01 ± 0.099
AAAAAGCAAUAUUACGCGAC	-2.77 ± 0.18	-1.23 ± 0.12
AAAAAGCAAUAUUACGCGCC	-0.44 ± 0.095	-0.59 ± 0.13
AAAAAGCAAUAUUACGCUAC	-3.43 ± 0.18	-3.23 ± 0.24
AAAAAGCAAUAUUACGGAUU	-0.657 ± 0.068	-0.635 ± 0.096
AAAAAGCAAUAUUACGGCCC	-0.786 ± 0.22	0.00498 ± 0.23
AAAAAGCAAUAUUACGGCUC	-0.28 ± 0.076	0.157 ± 0.098
AAAAAGCAAUAUUACGGCUU	-0.00557 ± 0.049	0.259 ± 0.066
AAAAAGCAAUAUUACGGGAA	-2.09 ± 0.13	-1.82 ± 0.13
AAAAAGCAAUAUUACGGGAU	-1.62 ± 0.075	-1.23 ± 0.086
AAAAAGCAAUAUUACGGUGC	-3.45 ± 0.099	-2.25 ± 0.081
AAAAAGCAAUAUUACGGUGU	-2.13 ± 0.094	-1.39 ± 0.11
AAAAAGCAAUAUUACGGUUA	0.0411 ± 0.067	-0.012 ± 0.079
AAAAAGCAAUAUUACGUCAC	-4.29 ± 0.26	-1.27 ± 0.16
AAAAAGCAAUAUUACGUCUG	-0.785 ± 0.058	-0.319 ± 0.072
AAAAAGCAAUAUUACGUGCC	-0.945 ± 0.11	-1.17 ± 0.12

Sequence	self-splicing fitness (ln) (30 °C)	self-splicing fitness (ln) (37 °C)
AAAAAGCAAUAUUACGUUCA	-0.237 ± 0.075	0.0228 ± 0.089
AAAAAGCAAUAUUACGUUGC	-3.56 ± 0.13	-2.44 ± 0.14
AAACAGCAAUAUUACGAAUG	-2.81 ± 0.13	-1.91 ± 0.15
AAACAGCAAUAUUACGACAC	-1.95 ± 0.15	-0.33 ± 0.15
AAACAGCAAUAUUACGACUA	-0.953 ± 0.074	0.0444 ± 0.077
AAACAGCAAUAUUACGAGAU	-3.64 ± 0.2	-2 ± 0.15
AAACAGCAAUAUUACGAUCG	-2.18 ± 0.11	-0.0291 ± 0.11
AAACAGCAAUAUUACGAUGU	-1.36 ± 0.088	-0.715 ± 0.091
AAACAGCAAUAUUACGCAUA	-2 ± 0.096	-0.419 ± 0.073
AAACAGCAAUAUUACGCCAC	–	-1.77 ± 0.31
AAACAGCAAUAUUACGCGUA	-1.64 ± 0.093	-0.734 ± 0.083
AAACAGCAAUAUUACGGACG	-2.25 ± 0.087	-0.676 ± 0.097
AAACAGCAAUAUUACGGCGC	-1.43 ± 0.11	-0.594 ± 0.16
AAACAGCAAUAUUACGGGUC	-3.47 ± 0.16	-3.08 ± 0.22
AAACAGCAAUAUUACGGUGU	-2.42 ± 0.06	-1.4 ± 0.071
AAACAGCAAUAUUACGUCCG	-1.89 ± 0.082	-0.645 ± 0.1
AAACAGCAAUAUUACGUCUG	-2.28 ± 0.084	-1.17 ± 0.095
AAACAGCAAUAUUACGUUAG	-3.45 ± 0.14	-1.72 ± 0.12
AAACAGCAAUAUUACGUUCA	-0.713 ± 0.045	-0.557 ± 0.063
AAAGAGCAAUAUUACGAAAA	–	-0.77 ± 0.4
AAAGAGCAAUAUUACGAAUU	-1.32 ± 0.22	-2.28 ± 0.31
AAAGAGCAAUAUUACGAUAU	-3.17 ± 0.23	-1.97 ± 0.16
AAAGAGCAAUAUUACGCAAA	-3.16 ± 0.43	-2.75 ± 0.34
AAAGAGCAAUAUUACGCAUA	-2.55 ± 0.23	-1.42 ± 0.22
AAAGAGCAAUAUUACGCCCU	-2.57 ± 0.21	-0.718 ± 0.17
AAAGAGCAAUAUUACGCUCU	–	-2.45 ± 0.49

Sequence	self-splicing fitness (ln) (30 °C)	self-splicing fitness (ln) (37 °C)
AAAGAGCAAUAUUACGCUUC	-2.33 ± 0.29	-3.01 ± 0.43
AAAGAGCAAUAUUACGGCGC	-2.27 ± 0.2	-0.545 ± 0.21
AAAGAGCAAUAUUACGGCGG	-3.05 ± 0.19	-2.21 ± 0.24
AAAGAGCAAUAUUACGGGCU	-3.06 ± 0.17	-3.58 ± 0.34
AAAGAGCAAUAUUACGGGGC	-4.4 ± 0.42	-2.79 ± 0.36
AAAGAGCAAUAUUACGUAUC	–	-1.57 ± 0.27
AAAGAGCAAUAUUACGUCCG	-3.14 ± 0.21	-1.86 ± 0.35
AAAGAGCAAUAUUACGUCCU	-1.93 ± 0.13	-0.831 ± 0.12
AAAGAGCAAUAUUACGUGUG	-3.84 ± 0.18	-2.57 ± 0.19
AAAGAGCAAUAUUACGUGUU	-4.56 ± 0.36	-2.66 ± 0.24
AAAGAGCAAUAUUACGUUGG	-3.59 ± 0.22	-2.4 ± 0.25
AAAUAGCAAUAUUACGACCC	-0.239 ± 0.16	-0.544 ± 0.23
AAAUAGCAAUAUUACGAUCA	-0.673 ± 0.095	0.0414 ± 0.089
AAAUAGCAAUAUUACGCAAA	-2.3 ± 0.24	-1.66 ± 0.21
AAAUAGCAAUAUUACGCAUA	-1.7 ± 0.11	-0.726 ± 0.11
AAAUAGCAAUAUUACGCCCG	-0.812 ± 0.19	0.00909 ± 0.26
AAAUAGCAAUAUUACGCCUG	-0.3 ± 0.08	-1.03 ± 0.1
AAAUAGCAAUAUUACGGAGC	-3.73 ± 0.3	-2.26 ± 0.17
AAAUAGCAAUAUUACGGCCG	-0.799 ± 0.23	0.0219 ± 0.35
AAAUAGCAAUAUUACGGGAA	-3.24 ± 0.28	-1.34 ± 0.19
AAAUAGCAAUAUUACGGGAG	-2.29 ± 0.14	-1.84 ± 0.19
AAAUAGCAAUAUUACGGGUA	-2.15 ± 0.12	-1.41 ± 0.1
AAAUAGCAAUAUUACGGUGC	-4.05 ± 0.43	-1.81 ± 0.31
AAAUAGCAAUAUUACGUACU	0.159 ± 0.063	0.295 ± 0.091
AAAUAGCAAUAUUACGUAGC	-3.97 ± 0.33	-1.9 ± 0.31
